The results in this text go back to patent US20260085129A1 (ECO ANIMAL HEALTH, published 2026).

One assay deals with T1, pCD163-SRCR1-9-huFc (porcine, UniProt Q2VL90 51-1028).
T1 construct: Limits 51-1028 are those the description gives for CD163-SRCR1-9; also called porcine CD163 SRCR1 to SRCR9 (no PST2) with human Fc; soluble CD163; not shown: human Fc (huFc)
T1 sequence: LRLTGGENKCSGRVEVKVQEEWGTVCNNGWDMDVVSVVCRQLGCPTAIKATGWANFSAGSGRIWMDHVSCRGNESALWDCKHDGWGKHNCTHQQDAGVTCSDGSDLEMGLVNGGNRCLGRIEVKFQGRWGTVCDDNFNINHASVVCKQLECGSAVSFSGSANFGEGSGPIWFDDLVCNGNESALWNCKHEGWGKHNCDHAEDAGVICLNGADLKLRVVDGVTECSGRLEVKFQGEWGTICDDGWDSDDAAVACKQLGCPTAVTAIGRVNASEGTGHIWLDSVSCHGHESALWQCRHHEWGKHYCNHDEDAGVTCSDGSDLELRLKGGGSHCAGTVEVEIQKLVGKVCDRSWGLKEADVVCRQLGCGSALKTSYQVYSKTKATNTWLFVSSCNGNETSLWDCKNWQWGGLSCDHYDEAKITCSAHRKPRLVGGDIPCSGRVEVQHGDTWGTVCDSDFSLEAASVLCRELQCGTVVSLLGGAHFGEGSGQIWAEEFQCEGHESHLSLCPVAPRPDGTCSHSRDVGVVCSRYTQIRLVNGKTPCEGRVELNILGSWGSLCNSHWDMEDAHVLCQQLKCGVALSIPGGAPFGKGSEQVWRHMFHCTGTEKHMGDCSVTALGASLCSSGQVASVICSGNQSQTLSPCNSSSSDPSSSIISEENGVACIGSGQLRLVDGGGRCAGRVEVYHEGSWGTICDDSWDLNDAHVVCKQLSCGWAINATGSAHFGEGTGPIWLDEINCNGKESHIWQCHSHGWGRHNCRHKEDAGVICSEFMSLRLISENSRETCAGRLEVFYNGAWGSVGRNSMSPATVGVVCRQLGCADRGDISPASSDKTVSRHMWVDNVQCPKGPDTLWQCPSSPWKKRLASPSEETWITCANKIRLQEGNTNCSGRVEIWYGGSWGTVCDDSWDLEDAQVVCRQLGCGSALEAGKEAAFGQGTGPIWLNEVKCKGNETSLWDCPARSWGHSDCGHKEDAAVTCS
In words: Biacore 3000 SPR, antigen amine-coupled on CM5 chip, pH 7.4.

The next assay concerns the target T2, pCD163-SRCR-FL-PST2-His (porcine, UniProt Q2VL90 51-1044).
T2 construct: also called pCD163-1-PST2-His; pCD163-SRCR1-PST2; not shown: His tag
T2 sequence: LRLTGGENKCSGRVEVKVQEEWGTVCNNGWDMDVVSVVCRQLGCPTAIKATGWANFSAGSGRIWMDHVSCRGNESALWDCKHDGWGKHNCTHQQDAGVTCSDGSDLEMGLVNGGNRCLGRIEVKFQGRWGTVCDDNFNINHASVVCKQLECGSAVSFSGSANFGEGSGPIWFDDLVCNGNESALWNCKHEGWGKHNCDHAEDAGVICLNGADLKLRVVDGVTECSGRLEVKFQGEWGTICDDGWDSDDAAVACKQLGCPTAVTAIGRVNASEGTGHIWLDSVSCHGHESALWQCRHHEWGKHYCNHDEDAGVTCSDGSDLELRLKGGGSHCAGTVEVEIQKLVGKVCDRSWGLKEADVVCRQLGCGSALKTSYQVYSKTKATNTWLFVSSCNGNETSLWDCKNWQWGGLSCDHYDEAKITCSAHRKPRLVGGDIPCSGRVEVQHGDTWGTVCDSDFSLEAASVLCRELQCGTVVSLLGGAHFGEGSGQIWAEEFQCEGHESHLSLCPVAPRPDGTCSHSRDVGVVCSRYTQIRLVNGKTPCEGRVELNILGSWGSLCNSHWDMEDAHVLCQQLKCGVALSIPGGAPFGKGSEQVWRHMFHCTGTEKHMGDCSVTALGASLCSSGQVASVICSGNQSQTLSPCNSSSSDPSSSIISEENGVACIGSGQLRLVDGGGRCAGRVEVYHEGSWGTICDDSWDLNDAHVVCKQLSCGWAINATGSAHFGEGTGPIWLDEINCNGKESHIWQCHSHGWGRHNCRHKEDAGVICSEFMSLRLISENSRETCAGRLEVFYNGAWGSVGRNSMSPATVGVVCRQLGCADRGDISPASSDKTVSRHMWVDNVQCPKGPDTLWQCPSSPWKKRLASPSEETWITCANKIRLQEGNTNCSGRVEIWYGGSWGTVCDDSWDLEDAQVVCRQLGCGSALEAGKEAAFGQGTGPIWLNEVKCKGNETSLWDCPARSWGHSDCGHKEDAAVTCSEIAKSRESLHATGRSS
In words: Biacore 3000 SPR, antigen amine-coupled on CM5 chip, VHH 200-12.5 nM, pH 7.4, 1:1 binding with mass transfer. The procedure:
Surface plasmon resonance (SPR) (Biacore 3000, GE Healthcare) was used to determine the binding kinetics of selected single domain antibodies at pH7.4. Approximately 2075 to 2423 RUs of pCD163-SRCR1-9-huFc or 2859 to 3286 RUs of pCD163-1-PST2-His. respectively, at 20 or 30 μg/ml in Acetate buffer pH 5.0 or pH 5.5 were immobilized onto a CM5 chip using the standard amine coupling procedure.
1×HBS-EP pH 7.4, was utilized as a running buffer during binding kinetic measurements. Purified VHH were injected at 2-fold dilution from 200 nM down to 12.5 nM in HBS-EP pH 7.4, at 30 μl/min for 2 minutes, followed by an off-rate wash for 1 min between injections. Off-rate wash was 300s after the last concentration injection in each cycle. RU levels were restored to base levels after regeneration with two injections of 10 μl of 1 M NaCl, 1 mM Glycine pH 1.5 between samples.
Fitting 1:1 binding with mass transfer was applied to the set of sample curves using the simultaneous fitting option of the BIAevaluation software to calculate the kinetic constants of the antibody-antigen interactions including association rate (ka), dissociation rate (kd) and affinity (KD). Curves were removed from the fitting after visual examination of the residuals and considering the value of Chi2: a minimum of 4 curves were considered for the simultaneous fitting.
For orientation: In SPR one partner is held on a chip, and binding of the other changes the refractive index at the surface.

B1: Clone 39-H17B11 VHH antibody (VHH)
VHH: QVQLVESGGGLVQAGGSLRLSCAASGRTFSSYAMGWFRQTPGKDREFVARIGWTGGTTIYADSVKGRFTISRDNAKNTVYLQMNSLKPEDTAVYYCAADQAGWRTAGVRNTYEYDYWGQGTQVTVSS
notes: Llama single domain antibody; also called clone 17B11; not shown: tags: c-myc tag on the soluble VHH in periplasmic extracts; FLAG and His tags on the purified VHH
A word on the Kd: it is the concentration at which binding is half-saturated. For orientation: koff means the rate constant with which the complex falls apart. Read a low koff as a long-lived complex. As a reminder, the kon is a measure of how fast the partners come together. A lower kon goes with slower complex formation. Take B1: in the assay with pCD163-SRCR1-9-huFc, the binding result is given as “no binding (tested: 200 nM (highest VHH concentration))”. Also, in the assay with pCD163-SRCR-FL-PST2-His, the affinity, expressed as Kd, was 255 µM; the dissociation rate constant (koff) is 0.281 s⁻¹; the on-rate constant (kon) was found to be 1100 M⁻¹ s⁻¹.
